Experimental findings from patent publication US20120237496 are described below.

The target in one series is T1, Peptide-6a.
T1 chain: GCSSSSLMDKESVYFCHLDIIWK

For the next series, the target named is T2, Peptide-5 (not fully specified).
T2 chain: CDRVYIHPFHLK

B1: D1 (protein)
chain: YPYDVPDYAYPYDVPDYAYPYDVPDYAGSYDDGICKSSDCIKSAARLIQNMDATTEPCTDFFKYACGGWLKRNVIPETSSRYGNFDILRDELEVVLKDVLQEPKTEDIVAVQKAKALYRSCINESAIDSRGGEPLLKLLPDIYGWPVATENWEQKYGASWTAEKAIAQLNSKYGKKVLINLFVGTDDKNSVNHVIHIDQPRLGLPSRDYYECTGIYKEACTAYVDFMISVARLIRQEERLPIDENQLALEMNKVMELEKEIANATSKPEDRNDPMLLYNKMTLAQIQNNFSLEINGKPFSWLNFTNEIMSTVNISITNEEDVVVYAPEYLTKLKPILTKYSARDLQNLMSWRFIMDLVSSLSRTYKESRNAFRKALYVTTSETATWRRCANYVNGNMMNAVGRLYVEAAFAGESKHVVEDLIAQIREVFIQTLDDLTWMDAETKKRAEEKALAIKERIGYPDDIVSNDNKLNNEYLELNYKEDEYFENIIQNLKFSQSKQLKKLREKVDKDEWISGAAVVNAFYSSGRNQIVFPAGILQPPFFSAQQSNSLNYGGIGMVIGHEITHGFFDNGRNPNKDDDLVDWWTQQSASNFKEQSQCMVYQYGNFSWDLAGGQHLNGINTLGENIADNGGLGQAYRAYQNYIKKNGEEKLLPGLDLNHKQLFFLNFAQVWCGTYRPEYAVNSIKTDVHSPKNFRIIGTLQNSAEFSEAFHCRKNSYMNPEKKCRVW
Turning to B1, the activity relative to G399V/G714K (B1) in the series with Peptide-2 stood at 1.24 fold; with Peptide-4, 0.95 fold; with Peptide-7, 0.61 fold; with Peptide-1 it was 1.11 fold; with Peptide-6a, 0.12 fold; with Peptide-5, 0.08 fold.

B2: D2 (protein)
chain: YPYDVPDYAYPYDVPDYAYPYDVPDYAGSYDDGICKSSDCIKSAARLIQNMDATTEPCTDFFKYACGGWLKRNVIPETSSRYGNFDILRDELEVVLKDVLQEPKTEDIVAVQKAKALYRSCINESAIDSRGGEPLLKLLPDIYGWPVATENWEQKYGASWTAEKAIAQLNSKYGKKVLINLFVGTDDKNSVNHVIHIDQPRLGLPSRDYYECTGIYKEACTAYVDFMISVARLIRQEERLPIDENQLALEMNKVMELEKEIANATAKPEDRNDPMLLYNKMTLAQIQNNFSLEINGKPFSWLNFTNEIMSTVNISITNEEDVVVYAPEYLTKLKPILTKYSARDLQNLMSWRFIMGLVSSLSRTYKESRNAFRKALYVTTSETATWRRCANYVNGNMMNAVGRLYVEAAFAGESKHVVEDLIAQIREVFIQTLDDLTWMDAETKKRAEEKALAIKERIGYPDDIVSNDNKLNNEYLELNYKEDEYFENIIQNLKFSQSKQLKKLREKVDKDEWISGAAVVNAFYSSGRNQIVFPAGILQPPFFSAQQSNSLNYGGIGMVIGHEITHGFFDNGRNPNKDDDLVDWWTQQSASNFKEQSQCMVYQYGNFSWDLAGGQHLNGINTLGENIADNGGLGQAYRAYQNYIKKNGEEKLLPGLDLNHKQLFFLNFAQVWCGTYRPEYAVNSIKTDVHSPKNFRIIGTLQNSAEFSEAFHCRKNSYMNPEKKCRVW
As to B2, the activity relative to G399V/G714K (B1) in the series with Peptide-2 stood at 1.06 fold; with Peptide-4, 0.9 fold; with Peptide-7 it was 0.4 fold; with Peptide-1, 0.83 fold; with Peptide-6a, 0.08 fold; with Peptide-5, 0.08 fold.
